Where a chain is given by its changes, count along the chain named. Where two headings read alike, the source gives them in different places. One block for each binder: values may come before it.
Key:
[1] = target: T1, human TRAIL R2-Fc fusion protein (human, UniProt O14763 54-182, limits assumed, biotinylated in the competition ELISA of Example 3); test: competition ELISA; F4 mod 1 coated plate, human TRAIL R2-Fc
T1 construct: also called biotinylated TRAIL R2-Fc; soluble TRAIL R2-Fc; not shown: Fc part

[2] = target: T1, human TRAIL R2-Fc fusion protein; test: competition ELISA: plate coated with F4 mod 1, human TRAIL R2-Fc, monomer as competitor
[3] = target: T1, human TRAIL R2-Fc fusion protein; test: competition ELISA: plate coated with F4 mod 1, 0.75 nM human TRAIL R2-Fc, purified monomer as competitor
[4] = target: T1, human TRAIL R2-Fc fusion protein; test: competition ELISA; plate coated with A9(1C12), 0.75 nM biotinylated TRAIL R2-Fc
Description: Plates were blocked with PBS 0.1% Tween 20+10 mg/ml BSA. […] Absorbance was read at 450 nm.

[5] = target: T2, Human CD40L, recombinant (E. coli produced) (human, UniProt P29965 113-261, limits assumed, His-tagged (capture ELISA) or biotinylated (AlphaScreen)); test: capture ELISA: His-tagged construct captured from E. coli media on anti-His antibody, His-tagged HuCD40L preincubated with biotinylated anti-His antibody titrated, streptavidin-HRP/TMB
T2 construct: also called HuCD40L; huCD40L
T2 sequence (looked up): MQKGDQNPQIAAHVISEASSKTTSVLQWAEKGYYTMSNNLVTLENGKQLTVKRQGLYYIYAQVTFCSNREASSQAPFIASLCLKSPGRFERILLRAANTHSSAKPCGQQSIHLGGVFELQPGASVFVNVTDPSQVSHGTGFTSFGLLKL
Description: (§1) A 96-well MaxiSorb plate was coated with Qiagen anti-His antibody at 2 μg/ml overnight. The coated plate was blocked with PBS containing 0.1% v/v Tween-20 and 4% w/v skim milk powder (PBST 4% milk) for 1.5 hours. The coated plate was washed with PBST and diluted bacterial media (diluted 30-fold) containing soluble expressed proteins was added and plates were incubated at room temperature for 2 hours. […] The absorbance was read at 450 nm.

cynomolgus TRAIL R2-Fc [6] = target: T3, cynomolgus TRAIL R2-Fc (cynomolgus monkey (Macaca fascicularis)); test: competition ELISA; F4 mod 1 coated plate, cyno TRAIL R2-Fc
T3 construct: the ELISAs used the Fc fusion; also called cyno TRAIL R2-Fc; cyno TRAIL-R2-Fc

cynomolgus TRAIL R2-Fc [7] = target: T3, cynomolgus TRAIL R2-Fc; test: competition ELISA: plate coated with F4 mod 1, cyno TRAIL R2-Fc, monomer as competitor
cynomolgus TRAIL R2-Fc [8] = target: T3, cynomolgus TRAIL R2-Fc; test: competition ELISA: plate coated with F4 mod 1, 0.75 nM cyno TRAIL R2-Fc, purified monomer as competitor
[9] = target: T4, TRAIL R2, recombinant (format not stated) (human, UniProt O14763 54-182, limits assumed, biotinylated in the ELISAs of paragraph 539 and paragraph 556); test: capture ELISA; Tn3 captured on anti-His, biotinylated TRAIL R2
T4 construct: also called biotinylated TRAIL R2; TRAIL R2 biotin
Description: as §1

[10] = target: T1, human TRAIL R2-Fc fusion protein; test: capture ELISA: His-tagged construct captured from E. coli media on anti-His antibody, biotinylated TRAIL R2 (axis: TrailR2-Fc) titrated, streptavidin-HRP/TMB
Description: as §1

[11] = target: T5, human TRAIL R2 on the cell surface (H2122, Colo205, Jurkat and other tumor cell lines) (human, UniProt O14763 56-440); test: cell-based or functional assay
[12] = target: T5, human TRAIL R2 on the cell surface …; test: cell-based or functional assay; remark: listed apart in the source
[13] = target: T5, human TRAIL R2 on the cell surface …; test: cell-based or functional assay; remark: listed apart in the source

B1: F4, TRAIL R2-binding Tn3 monomer (designed binder)
chain: AIEVKDVTDTTALITWAKPWVDPPPLWGCELAYGIKDVPGDRTTIDLQQKHTAYSIGNLKPDTEYEVSLICFDPYGLKSRPAKETFTTGGGTLGHHHHHHHH
notes: also called clone F4; original F4
fold difference in binding among F4, F4 mod 1 and F4 mod 12 [1]: ≤ 6 fold
IC50 [2]: 89 nM
IC50 [3]: 89 nM

B2: A1 (1E11), monovalent TRAIL R2-specific Tn3 scaffold (designed binder)
chain: B1 chain with L77A, R80N
notes: His-tagged monomer expressed in E. coli; also called 1E11 monomer
IC50 [4]: 16 nM
binding result [5]: no binding (tested: 5.00E-02 ug/ml)

B5: A3 (1E11), tetravalent linear tandem Tn3 (designed binder)
chain: SGGGGSAIEVKDVTDTTALITWAKPWVDPPPLWGCELAYGIKDVPGDRTTIDLQQKHTAYSIGNLKPDTEYEVSLICFDPYGAKSNPAKETFTTGGGGSGGGGSGGGGSAIEVKDVTDTTALITWAKPWVDPPPLWGCELAYGIKDVPGDRTTIDLQQKHTAYSIGNLKPDTEYEVSLICFDPYGAKSNPAKETFTTGGGGSGGGGSGGGGSAIEVKDVTDTTALITWAKPWVDPPPLWGCELAYGIKDVPGDRTTIDLQQKHTAYSIGNLKPDTEYEVSLICFDPYGAKSNPAKETFTTGGGGSGGGGSGGGGSAIEVKDVTDTTALITWAKPWVDPPPLWGCELAYGIKDVPGDRTTIDLQQKHTAYSIGNLKPDTEYEVSLICFDPYGAKSNPAKETFTTGGGGSGGGGSGTLGHHHHHHHH
potency in inhibiting H2122 cell viability relative to A9 [11]: ~150 fold
Maximum Inhibition %, H2122 [12]: 91%
Maximum Inhibition %, H2122 [13]: 91%
IC50 [4]: 0.4 nM
fold higher affinity relative to the monomeric A1 protein [4]: 30 to 40 fold
fold lower IC50 than the monomer A1 [4]: ≥ 30 fold

B6: A2 (1E11), bivalent linear tandem Tn3 (designed binder)
chain: SGGGGSAIEVKDVTDTTALITWAKPWVDPPPLWGCELAYGIKDVPGDRTTIDLQQKHTAYSIGNLKPDTEYEVSLICFDPYGAKSNPAKETFTTGGGGSGGGGSGGGGSAIEVKDVTDTTALITWAKPWVDPPPLWGCELAYGIKDVPGDRTTIDLQQKHTAYSIGNLKPDTEYEVSLICFDPYGAKSNPAKETFTTGGGGSGGGGSGTLGHHHHHHHH
IC50 [4]: 0.5 nM
fold higher affinity relative to the monomeric A1 protein [4]: 30 to 40 fold
fold lower IC50 than the monomer A1 [4]: ≥ 30 fold

The next lines start with the values.

fold difference in binding between F4 mod 1 and F4 mod 12 (cynomolgus TRAIL R2-Fc [6]): ≤ 2 fold
fold difference in binding among F4, F4 mod 1 and F4 mod 12 [1]: ≤ 6 fold
IC50 (cynomolgus TRAIL R2-Fc [7]): 34 nM
IC50 [2]: 15 nM
IC50 (cynomolgus TRAIL R2-Fc [8]): 34 nM
IC50 [3]: 15 nM
B3: F4 mod 1, cyno cross reactive TRAIL R2-binding Tn3 monomer (designed binder)
chain: B1 chain with D46G
notes: F4 with a D to G mutation two amino acids before the DE loop; also called F4 mod 1 monomer

binding result [9]: no binding
binding result [10]: no binding (tested: 0.2 ug/ml)
B4: 79, monovalent human CD40L-specific Tn3 (designed binder)
chain: IEVKDVTDTTALITWIPPHNADSSIIGCELTYGIKDVPGDRTTIDLYDVAFDYSIGNLKPDTEYEVSLICDTFYGFDSNPAKETFTTGGGTLGHHHHHHHH
notes: 8xHis-tagged, captured from E. coli media; also called 79 (79); clone 79

fold difference in binding between F4 mod 1 and F4 mod 12 (cynomolgus TRAIL R2-Fc [6]): ≤ 2 fold
fold difference in binding among F4, F4 mod 1 and F4 mod 12 [1]: ≤ 6 fold
IC50 (cynomolgus TRAIL R2-Fc [7]): 50 nM
IC50 [2]: 22 nM
B7: F4 mod 12, germline engineered cyno cross reactive TRAIL R2-binding Tn3 monomer (designed binder)
chain: SQIEVKDVTDTTALITWAKPWVDPPPLWGCELTYGIKDVPGDRTTIGLQQKHNQYSIGNLKPDTEYEVSLICFDPYGLKSRPAKETFTTGLGTLGHHHHHHHH
notes: also called F4 mod 12 monomer
